Drawing on article PMC7815755, this text covers stoichiometry N for two substances.

For assay [1], the target named is IRGB10 D185R mutant (head-to-head dimer disruption mutant) (mouse) (UniProt Q0GUM3). As to the kind of experiment: SEC-MALS; tentative dimer peak of the head-to-head disruption mutants (Fig. 3e, g). (In general: Size exclusion chromatography separates by hydrodynamic size, large species first.)
Assay [2] concerns the target Immunity-related GTPase B10 (IRGB10), mouse, full length, wild type (mouse) (UniProt Q0GUM3). As to the kind of experiment: SEC-MALS; third peak of the first SEC, Superdex 200 10/300, 20 mM Tris-HCl pH 8.0, 150 mM NaCl, room temperature, no GTP added.

“IRGB10 D185R mutant (head-to-head dimer disruption mutant) (from UniProt Q0GUM3 1-417) (natural protein)” displayed a stoichiometry N in assay [1] of 2.
On to “Immunity-related GTPase B10 (IRGB10), mouse, full length, wild type (from UniProt Q0GUM3 1-417) (natural protein)”, for which, in assay [2], the stoichiometry N worked out at 2.

For orientation: stoichiometry N means a count of units in the complex or per binding partner.
